Measurements reported in PMC12101266.
Like-named read-outs stand apart in the source and are kept apart here.

Assays:
[1] = molecular target: casein
[2] = molecular target: casein; remark: listed apart in the source

How did the Km of casein proteolysis (substrate–velocity curve, UV absorbance at 280 nm, casein 7–80 µM, 37 °C, 50 mM Tris pH 7.8) [1] turn out when “purified S. trilobatum serine protease (StSP) (enzyme)” was run?
Its Km of casein proteolysis (substrate–velocity curve, UV absorbance at 280 nm, casein 7–80 µM, 37 °C, 50 mM Tris pH 7.8) is 14.1 µM/min.

What about the Km of casein proteolysis (substrate–velocity curve, UV absorbance at 280 nm, casein 7–80 µM, 37 °C, 50 mM Tris pH 7.8) [2] of the same substance?
The Km of casein proteolysis (substrate–velocity curve, UV absorbance at 280 nm, casein 7–80 µM, 37 °C, 50 mM Tris pH 7.8) was 14.6 µM.
